The values that follow come from the supplement of paper PMC5998384.

Data set [1] has as its system HeLa Kyoto. Briefly: solubility in G1/S (NP-40 vs SDS abundance) (log2 ratio); higher = more soluble. The note with it: cell cycle stage: G1/S.
Data set [2] has as its system HeLa Kyoto. Kind of data set: solubility change mitosis vs G1/S (difference of NP-40 vs SDS log2 ratios) (log2 ratio difference); higher = more soluble in mitosis.
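For solubility change mitosis vs G1/S (difference of NP-40 vs SDS log2 ratios) in this document: synchronized HeLa Kyoto cells (double thymidine block for G1/S, nocodazole release for mitosis), protein amounts in NP-40 versus SDS lysates quantified by mass spectrometry, three biological replicates.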
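For solubility in G1/S (NP-40 vs SDS abundance) in this document: HeLa Kyoto cells arrested at G1/S by double thymidine block, proteins quantified by TMT10plex mass spectrometry in mild NP-40 versus SDS extracts, three biological replicates.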

In the case of “MAEGPEEARGHPPGQDDGGGDHEPVPSLRGPPTTAVPCPRDDPQAEPQAPGRPTAPGLAAAAAADKLEPPRELRKRGEAASGSGAELQEQAGCEAPEAAAPRERPARLSAREYSRQVHEWLWQSYCGYLTWHSGLAAFPAYCSPQPSPQSFPSGGAAVPQAAAPPPPQLGYYNPFYFLSPGAAGPDPRTAAGISTPAPVAGLGPRAPHVQASVRATPVTRVGSAAPSRSPSETGRQAGREYVIPSLAHRFMAEMVDFFILFFIKATIVLSIMHLSGIKDISKFAMHYIIEEIDEDTSMEDLQKMMVVALIYRLLVCFYEIICIWGAGGATPGKFLLGLRVVTCDTSVLIAPSRVLVIPSSNVSITTSTIRALIKNFSIASFFPAFITLLFFQHNRTAYDIVAGTIVVKRNGVR [FAM8A1]”, in the data set on HeLa Kyoto [1], the “solubility in G1/S (log2)” value was -0.0476. In the data set on HeLa Kyoto [2], the “solubility change mitosis (log2)” value is 0.0402.

As for “MAENLKGCSVCCKSSWNQLQDLCRLAKLSCPALGISKRNLYDFEVEYLCDYKKIREQEYYLVKWRGYPDSESTWEPRQNLKCVRILKQFHKDLERELLRRHHRSKTPRHLDPSLANYLVQKAKQRRALRRWEQELNAKRSHLGRITVENEVDLDGPPRAFVYINEYRVGEGITLNQVAVGCECQDCLWAPTGGCCPGASLHKFAYNDQGQVRLRAGLPIYECNSRCRCGYDCPNRVVQKGIRYDLCIFRTDDGRGWGVRTLEKIRKNSFVMEYVGEIITSEEAERRGQIYDRQGATYLFDLDYVEDVYTVDAAYYGNISHFVNHSCDPNLQVYNVFIDNLDERLPRIAFFATRTIRAGEELTFDYNMQVDPVDMESTRMDSNFGLAGLPGSPKKRVRIECKCGTESCRKYLF [SUV39H1]”, the “solubility in G1/S (log2)” value in the data set with HeLa Kyoto [1] was -0.773. Further, in the data set on HeLa Kyoto [2], the “solubility change mitosis (log2)” value was -0.415.

As to “MAEPSQAPTPAPAAQPRPLQSPAPAPTPTPAPSPASAPIPTPTPAPAPAPAAAPAGSTGTGGPGVGSGGAGSGGDPARPGLSQQQRASQRKAQVRGLPRAKKLEKLGVFSACKANETCKCNGWKNPKPPTAPRMDLQQPAANLSELCRSCEHPLADHVSHLENVSEDEINRLLGMVVDVENLFMSVHKEEDTDTKQVYFYLFKLLRKCILQMTRPVVEGSLGSPPFEKPNIEQGVLNFVQYKFSHLAPRERQTMFELSKMFLLCLNYWKLETPAQFRQRSQAEDVATYKVNYTRWLCYCHVPQSCDSLPRYETTHVFGRSLLRSIFTVTRRQLLEKFRVEKDKLVPEKRTLILTHFPKFLSMLEEEIYGANSPIWESGFTMPPSEGTQLVPRPASVSAAVVPSTPIFSPSMGGGSNSSLSLDSAGAEPMPGEKRTLPENLTLEDAKRLRVMGDIPMELVNEVMLTITDPAAMLGPETSLLSANAARDETARLEERRGIIEFHVIGNSLTPKANRRVLLWLVGLQNVFSHQLPRMPKEYIARLVFDPKHKTLALIKDGRVIGGICFRMFPTQGFTEIVFCAVTSNEQVKGYGTHLMNHLKEYHIKHNILYFLTYADEYAIGYFKKQGFSKDIKVPKSRYLGYIKDYEGATLMECELNPRIPYTELSHIIKKQKEIIKKLIERKQAQIRKVYPGLSCFKEGVRQIPVESVPGIRETGWKPLGKEKGKELKDPDQLYTTLKNLLAQIKSHPSAWPFMEPVKKSEAPDYYEVIRFPIDLKTMTERLRSRYYVTRKLFVADLQRVIANCREYNPPDSEYCRCASALEKFFYFKLKEGGLIDK [KAT2A]”, the “solubility in G1/S (log2)” value with HeLa Kyoto [1] came to 0.0904. Besides, in the data set on HeLa Kyoto [2], the “solubility change mitosis (log2)” value is -0.058.

On to “MAETSPEPSGQLVVHSDAHSDTVLASFEDQRKKGFLCDITLIVENVHFRAHKALLAASSEYFSMMFAEEGEIGQSIYMLEGMVADTFGILLEFIYTGYLHASEKSTEQILATAQFLKVYDLVKAYTDFQNNHSSPKPTTLNTAGAPVVVISNKKNDPPKRKRGRPKKVNTLQEEKSELAAEEEIQLRVNNSVQNRQNFVVKGDSGVLNEQIAAKEKEESEPTCEPSREEEMPVEKDENYDPKTEDGQASQSRYSKRRIWRSVKLKDYKLVGDQEDHGSAKRICGRRKRPGGPEARCKDCGKVFKYNHFLAIHQRSHTGERPFKCNECGKGFAQKHSLQVHTRMHTGERPYTCTVCSKALTTKHSLLEHMSLHSGQKSFTCDQCGKYFSQNRQLKSHYRVHTGHSLPECKDCHRKFMDVSQLKKHLRTHTGEKPFTCEICGKSFTAKSSLQTHIRIHRGEKPYSCGICGKSFSDSSAKRRHCILHTGKKPFSCPECNLQFARLDNLKAHLKIHSKEKHASDASSISGSSNTEEVRNILQLQPYQLSTSGEQEIQLLVTDSVHNINFMPGPSQGISIVTAESSQNMTADQAANLTLLTQQPEQLQNLILSAQQEQTEHIQSLNMIESQMGPSQTEPVHVITLSKETLEHLHAHQEQTEELHLATSTSDPAQHLQLTQEPGPPPPTHHVPQPTPLGQEQS [ZBTB24]”, for which, in the data set on HeLa Kyoto [1], the “solubility in G1/S (log2)” value was -0.495. For the same sequence, in the data set with HeLa Kyoto [2], the “solubility change mitosis (log2)” value was 0.142.

“MAGAGRGAAVSRVQAGPGSPRRARGRQQVQPLGKQRPAPWPGLRSKEKKKVNCKPKNQDEQEIPFRLREIMRSRQEMKNPISNKKRKKAAQVTFRKTLEKEAKGEEPDIAVPKFKQRKGESDGAYIHRMQQEAQHVLFLSKNQAIRQPEVQAAPKEKSEQKKAKKAFQKRRLDKVRRKKEEKAADRLEQELLRDTVKFGEVVLQPPELTARPQRSVSKDQPGRRSQMLRMLLSPGGVSQPLTASLARQRIVEEERERAVQAYRALKQRQQQLHGERPHLTSRKKPEPQL [CCDC137]”: the “solubility in G1/S (log2)” value in the data set on HeLa Kyoto [1] is -1.04. In addition, in the data set with HeLa Kyoto [2], the “solubility change mitosis (log2)” value worked out at 0.83.

Take “MAGALVRKAADYVRSKDFRDYLMSTHFWGPVANWGLPIAAINDMKKSPEIISGRMTFALCCYSLTFMRFAYKVQPRNWLLFACHATNEVAQLIQGGRLIKHEMTKTASA [MPC1]”: the “solubility in G1/S (log2)” value in the data set with HeLa Kyoto [1] was -0.461. Moreover, the “solubility change mitosis (log2)” value in the data set with HeLa Kyoto [2] is -0.165.

Consider “MAGGPGPGEPAAPGAQHFLYEVPPWVMCRFYKVMDALEPADWCQFAALIVRDQTELRLCERSGQRTASVLWPWINRNARVADLVHILTHLQLLRARDIITAWHPPAPLPSPGTTAPRPSSIPAPAEAEAWSPRKLPSSASTFLSPAFPGSQTHSGPELGLVPSPASLWPPPPSPAPSSTKPGPESSVSLLQGARPFPFCWPLCEISRGTHNFSEELKIGEGGFGCVYRAVMRNTVYAVKRLKENADLEWTAVKQSFLTEVEQLSRFRHPNIVDFAGYCAQNGFYCLVYGFLPNGSLEDRLHCQTQACPPLSWPQRLDILLGTARAIQFLHQDSPSLIHGDIKSSNVLLDERLTPKLGDFGLARFSRFAGSSPSQSSMVARTQTVRGTLAYLPEEYIKTGRLAVDTDTFSFGVVVLETLAGQRAVKTHGARTKYLKDLVEEEAEEAGVALRSTQSTLQAGLAADAWAAPIAMQIYKKHLDPRPGPCPPELGLGLGQLACCCLHRRAKRRPPMTQVYERLEKLQAVVAGVPGHSEAASCIPPSPQENSYVSSTGRAHSGAAPWQPLAAPSGASAQAAEQLQRGPNQPVESDESLGGLSAALRSWHLTPSCPLDPAPLREAGCPQGDTAGESSWGSGPGSRPTAVEGLALGSSASSSSEPPQIIINPARQKMVQKLALYEDGALDSLQLLSSSSLPGLGLEQDRQGPEESDEFQS [IRAK1]”, for which the “solubility in G1/S (log2)” value in the data set on HeLa Kyoto [1] was 0.247. Moreover, in the data set on HeLa Kyoto [2], the “solubility change mitosis (log2)” value amounted to 0.07.

With “MAGPQMGGSAEDHPPRKRHAAEKQKKKTVIYTKCFEFESATQRPIDRQRYDENEDLSDVEEIVSVRGFSLEEKLRSQLYQGDFVHAMEGKDFNYEYVQREALRVPLIFREKDGLGIKMPDPDFTVRDVKLLVGSRRLVDVMDVNTQKGTEMSMSQFVRYYETPEAQRDKLYNVISLEFSHTKLEHLVKRPTVVDLVDWVDNMWPQHLKEKQTEATNAIAEMKYPKVKKYCLMSVKGCFTDFHIDFGGTSVWYHVFRGGKIFWLIPPTLHNLALYEEWVLSGKQSDIFLGDRVERCQRIELKQGYTFFIPSGWIHAVYTPVDSLVFGGNILHSFNVPMQLRIYEIEDRTRVQPKFRYPFYYEMCWYVLERYVYCVTQRSHLTQEYQRESMLIDAPRKPSIDGFSSDSWLEMEEEACDQQPQEEEEKDEEGEGRDRAPKPPTDGSTSPTSTPSEDQEALGKKPKAPALRFLKRTLSNESEESVKSTTLAVDYPKTPTGSPATEVSAKWTHLTEFELKGLKALVEKLESLPENKKCVPEGIEDPQALLEGVKNVLKEHADDDPSLAITGVPVVTWPKKTPKNRAVGRPKGKLGPASAVKLAANRTTAGARRRRTRCRKCEACLRTECGECHFCKDMKKFGGPGRMKQSCIMRQCIAPVLPHTAVCLVCGEAGKEDTVEEEEGKFNLMLMECSICNEIIHPGCLKIKESEGVVNDELPNCWECPKCNHAGKTGKQKRGPGFKYASNLPGSLLKEQKMNRDNKEGQEPAKRRSECEEAPRRRSDEHSKKVPPDGLLRRKSDDVHLRKKRKYEKPQELSGRKRASSLQTSPGSSSHLSPRPPLGSSLSPWWRSSLTYFQQQLKPGKEDKLFRKKRRSWKNAEDRMALANKPLRRFKQEPEDELPEAPPKTRESDHSRSSSPTAGPSTEGAEGPEEKKKVKMRRKRRLPNKELSRELSKELNHEIQRTENSLANENQQPIKSEPESEGEEPKRPPGICERPHRFSKGLNGTPRELRHQLGPSLRSPPRVISRPPPSVSPPKCIQMERHVIRPPPISPPPDSLPLDDGAAHVMHREVWMAVFSYLSHQDLCVCMRVCRTWNRWCCDKRLWTRIDLNHCKSITPLMLSGIIRRQPVSLDLSWTNISKKQLSWLINRLPGLRDLVLSGCSWIAVSALCSSSCPLLRTLDVQWVEGLKDAQMRDLLSPPTDNRPGQMDNRSKLRNIVELRLAGLDITDASLRLIIRHMPLLSKLHLSYCNHVTDQSINLLTAVGTTTRDSLTEINLSDCNKVTDQCLSFFKRCGNICHIDLRYCKQVTKEGCEQFIAEMSVSVQFGQVEEKLLQKLS [KDM2B]”, the “solubility in G1/S (log2)” value with HeLa Kyoto [1] is -0.295. Besides, the “solubility change mitosis (log2)” value with HeLa Kyoto [2] worked out at 0.226.

With “MAGWWPALSRAARRHPWPTNVLLYGSLVSAGDALQQRLQGREANWRQTRRVATLVVTFHANFNYVWLRLLERALPGRAPHALLAKLLCDQVVGAPIAVSAFYVGMSILQGKDDIFLDLKQKFWNTYLSGLMYWPFVQLTNFSLVPVQWRTAYAGVCGFLWATFICFSQQSGDGTFKSAFTILYTKGTSATEGYPKK [MPV17L]”, the “solubility in G1/S (log2)” value with HeLa Kyoto [1] is -0.145. Besides, the “solubility change mitosis (log2)” value in the data set on HeLa Kyoto [2] is -0.192.

For “MAKPAATAAAASEELSQVPDEELLRWSKEELARRLRRAEGEKVGLMLEHGGLMRDVNRRLQQHLLEIRGLKDVNQRLQDDNQELRELCCFLDDDRQKGRKLAREWQRFGRHAAGAVWHEVARSQQKLRELEARQEALLRENLELKELVLLLDEERAALAATGAASGGGGGGGGAGSRSSIDSQASLSGPLSGGAPGAGARDVGDGSSTSSAGSGGSPDHHHHVPPPLLPPGPHKAPDGKAGATRRSLDDLSAPPHHRSIPNGLHDPSSTYIRQLESKVRLLEGDKLLAQQAGSGEFRTLRKGFSPYHSESQLASLPPSYQDSLQNGPACPAPELPSPPSAGYSPAGQKPEAVVHAMKVLEVHENLDRQLQDSCEEDLSEKEKAIVREMCNVVWRKLGDAASSKPSIRQHLSGNQFKGPL [CCDC85C]”, in the data set on HeLa Kyoto [1], the “solubility in G1/S (log2)” value stood at 0.216. The “solubility change mitosis (log2)” value with HeLa Kyoto [2] stood at 0.214.

For the sequence “MAKRRAAEPVTFHVPWKRLLLCDFAEQPPPPPLWIRPPGVAHAGQLLGVPEQHRKRKIDAGTMAEPSASPSKRRDSGDNSAPSGQEREDHGLETGDPPLPPPPVLPGPGEELPGARLPGGGGDDGAGRAGPPRGDWGVASRQHNEEFWQYNTFQYWRNPLPPIDLADIEDLSEDTLTEATLQGRNEGAEVDMES [C9ORF40]”, in the data set on HeLa Kyoto [1], the “solubility in G1/S (log2)” value was 0.182. In addition, the “solubility change mitosis (log2)” value in the data set on HeLa Kyoto [2] was -0.227.
